According to article PMC6579771:

Target: S2-AAL, monovalent form of Aleuria aurantia lectin (Aleuria aurantia)
Assay: microfluidic displacement assay with fluorescence detection; S2-AAL immobilised on the PDMS/glass microchannel (APTES, glutaraldehyde), blocked with BSA; labeled lactoferrin 0.15 mg/ml in PBS perfused, washed with PBS; then fucose in PBS or PBS alone at 0.1 ul/min; fluorescence at the …

% of initial fluorescence intensity left after 10 min perfusion with PBS only: 99%
Substance: Human lactoferrin isolated from breast milk, labeled with DyLight 488 (natural protein)
